These results are taken from FireProtDB (doi:10.1021/bi00093a001).

The labels stand for the following.
B1: Subtilisin-chymotrypsin inhibitor-2A, P01053 (parent)
chain: MSSVEKKPEGVNTGAGDRHNLKTEWPELVGKSVEEAKKVILQDKPEAQIIVLPVGTIVTMEYRIDRVRLFVDKLDNIAQVPRVG

In the data set the parent is B1. Particulars: Hordeum vulgare, MES 450 mM, reversible: yes, structure 2CI2, whole UniProt chain shown; for ddG of mutation (higher = less stable) / heat capacity change of unfolding / denaturant m value / denaturant midpoint (higher = more stable) / unfolding free energy: 25 °C.

As usually defined, the Tm is the temperature at the midpoint of the melting transition. In the case of I40V, where the note is “pH 3, Thermal, DSC”, the “ddG of mutation (higher = less stable)” value worked out at 1.2 kcal/mol; the “heat capacity change of unfolding” value turned out to be 0.72 kcal/mol/K; the Tm amounted to 57.7 °C; the “change of melting temperature, mutant - wild type (higher = more stable)” value (from here on “change of melting temperature, mutant”) is -6.3 °C. For the same variant, under “pH 3, Thermal, DSC”, the “unfolding enthalpy (calorimetric)” value was found to be 53.7 kcal/mol and the “unfolding enthalpy (van 't Hoff)” value was 54.8 kcal/mol. Besides, where the note is “pH 3.5, Thermal, DSC”, the melting temperature (Tm) worked out at 67.3 °C; the “change of melting temperature, mutant” value is -6.5 °C; the “unfolding enthalpy (calorimetric)” value was determined as 61.5 kcal/mol; the “unfolding enthalpy (van 't Hoff)” value was determined as 62.5 kcal/mol. In addition, for the setting “pH 6.3, GdnHCl, Fluorescence”, the “ddG of mutation (higher = less stable)” value turned out to be 0.91 kcal/mol, the denaturant m value is 1.99 kcal/mol/M, the “denaturant midpoint (higher = more stable)” value (“denaturant midpoint” below) was 3.33 M and the unfolding free energy worked out at 6.63 kcal/mol.

On to L69A, for which, where the note is “pH 3.5, Thermal, DSC”, the “ddG of mutation (higher = less stable)” value was determined as 3.74 kcal/mol; the “heat capacity change of unfolding” value came out at 0.72 kcal/mol/K; the melting temperature (Tm) was 52.3 °C; the “change of melting temperature, mutant” value was -21.5 °C. For the setting “pH 3.5, Thermal, DSC”, the “unfolding enthalpy (calorimetric)” value amounted to 46.7 kcal/mol and the “unfolding enthalpy (van 't Hoff)” value was determined as 46.9 kcal/mol. Further, where the note is “pH 6.3, GdnHCl, Fluorescence”, the “ddG of mutation (higher = less stable)” value was determined as 3.56 kcal/mol, the denaturant m value is 1.98 kcal/mol/M, the “denaturant midpoint” value worked out at 2.01 M and the unfolding free energy was found to be 3.98 kcal/mol.

I49A I77V: for the setting “pH 3.5, Thermal, DSC”, the “ddG of mutation (higher = less stable)” value was found to be 4.69 kcal/mol and the “heat capacity change of unfolding” value was 0.72 kcal/mol/K. In addition, where the note is “pH 6.3, GdnHCl, Fluorescence”, the “ddG of mutation (higher = less stable)” value is 4.08 kcal/mol, the denaturant m value came to 1.83 kcal/mol/M, the “denaturant midpoint” value came out at 1.9 M and the unfolding free energy came to 3.46 kcal/mol.

For V39A, for the setting “pH 3, Thermal, DSC”, the “ddG of mutation (higher = less stable)” value is 0.46 kcal/mol; the “heat capacity change of unfolding” value is 0.72 kcal/mol/K; the Tm is 61.1 °C; the “change of melting temperature, mutant” value was -2.9 °C. Also, where the note is “pH 3, Thermal, DSC”, the “unfolding enthalpy (calorimetric)” value was 58.5 kcal/mol and the “unfolding enthalpy (van 't Hoff)” value came out at 58.6 kcal/mol. Where the note is “pH 6.3, GdnHCl, Fluorescence”, the “ddG of mutation (higher = less stable)” value was found to be 0 kcal/mol, the denaturant m value came out at 2.01 kcal/mol/M, the “denaturant midpoint” value stood at 3.75 M and the unfolding free energy was determined as 7.54 kcal/mol.

I49V: under “pH 3.5, Thermal, DSC”, the “ddG of mutation (higher = less stable)” value was found to be 0.92 kcal/mol; the “heat capacity change of unfolding” value is 0.72 kcal/mol/K; the midpoint of thermal melting (Tm) was determined as 69.1 °C; the “change of melting temperature, mutant” value is -4.7 °C. Under “pH 3.5, Thermal, DSC”, the “unfolding enthalpy (calorimetric)” value is 62.4 kcal/mol and the “unfolding enthalpy (van 't Hoff)” value was found to be 61.6 kcal/mol. For the same variant, where the note is “pH 6.3, GdnHCl, Fluorescence”, the “ddG of mutation (higher = less stable)” value was 0.75 kcal/mol, the denaturant m value was found to be 1.99 kcal/mol/M, the “denaturant midpoint” value was found to be 3.43 M and the unfolding free energy came to 6.8 kcal/mol.
